The values that follow come from the DeepSol protein solubility set.

A short description of this data set: soluble on expression in E. coli; label from the status in PepcDB or PDB records.
“MGSDKIHHHHHHMIACENSGHSIPDDFPEVRKIVEAGVTTNPKKDYELSRYACYLIVQNGDPRKEVIALGQTYFAIQTYRQEVADHFNELDEDNRRLVVRGDIKQWNQMLAETAHNAGVITNEEFAIFQNAGYMGLYGGLDVEGILAAVYQSVFGGDVYLSLEEKVANLLFNEIGNSQVV”: the “soluble on expression in E. coli” value was “not soluble”.

For “MGSDKIHHHHHHMIVNLSRLGKSGTGMWQYSIKFLTALREIADVDAIICSKVHADYFEKLGYAVVTVPNIVSNTSKTSRLRPLVWYVYSYWLALRVLIKFGNKKLVCTTHHTIPLLRNQTITVHDIRPFYYPDSFIQKVYFRFLLKMSVKRCKHVLTVSYTVKDSIAKTYNVDSEKISVIYNSVNKSDFIQKKEKENYFLAVGASWPHKNIHSFIKNKKVWSDSYNLIIVCGRTDYAMSLQQMVVDLELKDKVTFLHEVSFNELKILYSKAYALVYPSIDEGFGIPPIEAMASNTPVIVSDIPVFHEVLTNGALYVNPDDEKSWQSAIKNIEQLPDAISRFNNYVARYDFDNMKQMVGNWLAESK”, the “soluble on expression in E. coli” value is “not soluble”.

With “SLSSVNCIEQTTEWTACSKSCGMGFSTRVTNRNRQCEMLKQTRLCMVRPCEQEPEQPTDKKGKKCLRTKKSLKAIHLQFKNCTSLHTYKPRFCGVCSDGRCCTPHNTKTIQAEFQCSPGQIVKKPVMVIGTCTCHTNCPKNNEAFLQELELKTTRGKM”, the “soluble on expression in E. coli” value is “soluble”.

For “MSLSMLAVAATALATFAIAPAQAQAEKPKDKVTLMLNWYLYSEHATFFLGKEKGFYAEEGIDLGIQEGRGSAVTAQAVAAKSATFGYIDVTTMIKAAAKGAPLKSTGVLFQVSPMSVMGLSEKNIATPKDIIGKTVAVTPGDSMSQMWPLFLKVNDIRPDQVKVVSGDGQTKLNAVANGQADLLLGYVMDQAIKLQDATGKPVTPIRFADSGVNQISSGIITHKNLLTENPDLVKRFMRASTKAAEAAEKSPEAAVDAMLKAHPKAGVRDTLIVGMKQSVALYHTQETANQRPFRVAMKNVNDSLDLLEGHHHHHH”, the “soluble on expression in E. coli” value is “not soluble”.

As for “MGSDKIHHHHHHMKVLQYFENPGLISRSGIGHAQRLQQEELSYTDIVLDTSPFSKDYDLIDVNTYGPKSLAMVAKARLQNRKVVYHAHSTYEDFRNSFIGSNFLSKPFKKHLIKAYRQADLIITPTPYAKSLLRSYGLKQPIVPISNGVRVSSYRRNKSKIIKFRQFLNLKENDKRKIIISVGLYFQRKGIMDFVELARRNPEHLFVWFGYTDLRIIPKKIRETVKKDHPDNCVFAGYITGDVLQGAYSGADLFLYPSYEETEGIVVLEALASSQKVLVRDIPVYNDWLHDGFDCYKASNLDEFDKRLNEILAGKVKNVSKAGHEVALKRDVSLIGPQLKKAYEEALSLPSQESR”, the “soluble on expression in E. coli” value is listed as “not soluble”.

As to “MHIVIVGAGAVGGFFGGLLHESGTKVTFVARGKSLDALQRRGMRLHDASGVRDIRVPVVEDLSHVPDADVVILATKTLGSVDVPKNLPKSAVLVTTQNSVEMPHIAVEALGVDRVIPGVVRSFLTKRGPAEAEFSGGIFTFTFGCMSEATRGIVDKLAHVLDRAGIEPVVHPAIMTDIWFKAMFVTCFGALGALVNQPLGVVRTTYRDDFKALINEVVTAGQAHGVDFPEDVVDRVLAFADAQPKGATSSMQRDLANGLPSELDAQAGAVVRMAQRVGVDARLHHLVGNVLSHKHSD”, the “soluble on expression in E. coli” value is reported as “soluble”.

For the sequence “MNRQPIVQLSNLSWTFREGETRRQVLDHITFDFEPGEFVALLGQSGSGKSTLLNLISGIEKPTTGDVTINGFAITQKTERDRTLFRRDQIGIVFQFFNLIPTLTVLENITLPQELAGVSQRKAAVVARDLLEKVGMADRERTFPDKLSGGEQQRVAISRALAHNPMLVLADEPTGNLDSDTGDKVLDVLLDLTRQAGKTLIMATHSPSMTQHADRVVNLQGGRLIPAVNRENQTDQPASTILLPTSYE”, the “soluble on expression in E. coli” value is given as “not soluble”.

As for “MGSDKIHHHHHHMTPDQYCQEKAVQSGSSFYYSFLYLPPERRRAITALYAFCREVDDVVDECTEASVARVKLAWWRQEVAAIFDAGGNKPSHPVAQALAGVASTFNLTADRLNEIIDGMEMDLDYNRYADFDTLRHYCYHVASVVGLCSAEIFGYRNPKTLEYAQDLGLAFQLTNIIRDVGEDARRDRIYLPQDELARFGVSNEDILQSRETDNFRRLIEFQIDRAESYYANAFAALPEEDRKSQRSGIIMAAIYQALLKEIKADGCHVMRQRISLTPLRKLWIAWKTWMKG”, the “soluble on expression in E. coli” value is on record as “not soluble”.

With “MSLDSPFGPEDDICILHFNDVYNIEEDVNGTGGVARFVEALKSFRSLNPLLLFSGDVFNPSIMSVTTKGRHMVPFLNMMRVHTACFGNHDFDFGVDHLEYLAGSCNFQWILSNVYDAYTGEPLANARTYRLFEWQGRRIGIMGLVEKDWLKTLPTISEEDVIYKDFVEEANRISKILREKDAELIIALTHMRAPNDELLAKGADDIDLILGGHDHEYYGVKEIGNSVVAKSGTDFRDLTMIVIKPGKHCLVCPNSDSKLHLESCRYSSFSLDQPQNIYEERLIPNNKDGGDIYLREGHHHHHH”, the “soluble on expression in E. coli” value was “soluble”.

For the sequence “KDAVLVNSELKNIYMKDVINKTNMKITKKIGTQLIFNTNEKTRVWDDDNYNKVISSNVSPAQERRFKEEEEVDIYALIKSYSVICKEQYNYVDGGLIKTSDREKLDSTIYMNIFGEQIPLKEQSKYKITFQNKFVTFQEIDVRLRKSLMSDNRIKLYEHNSICKKGYWGIHYKDNTTKFTDLFTHPNYTDNETIDMSKVSHFDVYLNEEFSKN”, the “soluble on expression in E. coli” value is on record as “soluble”.

Consider “MGSDKIHHHHHHMANISTFEVGYCLHPGCMALRGAGWKVCRFPARVWMLESHGKRWLWDTGYAQHFTDATRSGLFQLYRRMTPVHFETKDALIHQLHAQGIQPADIDGLIISHFHGDHIAGLQDFPTVPFICSALGWQQTRNLRGFAALKRAFVPALIPEHFEQSLQFVENFPLTDLPAALAPFTQGYVLPGSDKEIVLVPLPGHAVGHLGAFVLTETGWVLLASDAAWSPHSYREGRGPSRLANLVMDDPKAYYQTLDQLHQLHLNGQVEIRLCHEGDL”, for which the “soluble on expression in E. coli” value is “not soluble”.

With “MMAKKPPKPAPRRIFQERLKITALPLYFEGFLLIKRSGYREYEHYWTELRGTTLFFYTDKKSIIYVDKLDIVDLTCLTEQNSTEKNCAKFTLVLPKEEVQLKTENTESGEEWRGFILTVTELSVPQNVSLLPGQVIKLHEVLEREKKRRIETEQSTSVEKEKEPTEDYVDVLNPMPACFYTVSRKEATEMLQKNPSLGNMILRPGSDSRNYSITIRQEIDIPRIKHYKVMSVGQNYTIELEKPVTLPNLFSVIDYFVKETRGNLRPFICSTDENTGQEPSMEGRSEKLKKNPHIA”, the “soluble on expression in E. coli” value is recorded as “soluble”.

Take “MSLVTLGEGFEKARLTRFLEKFGGNEGSQFLYLKDYGHFYYQEEGEDQVLFGFQMKFNKCFVLADPIGQREKWTAATLAFMDQADLLGYQLVFYRISEEYVMNLHDCGFEFMKVGEEGLIQFDEPSTVNQTAWTETVTEKIAAEAADFQFEFYPETISDALYQELERVSADWSRNQKERYFIGGRLDPEYLKCSSVGLVRQKQTVIGFITGKEMEKGKSISYDLLRIRSDAPAFTREYLFTHFIETYQQQGYQLIDIGMAPLANVGESKYSFLKERFVNIFYKYSYQIYAFQDTRKRKEQYVTSWQPRYFAYPKRTSVLFAFVQLSLLITKGRHQSVSLVEEAMTEIEGHHHHHH”: the “soluble on expression in E. coli” value is listed as “soluble”.

For the sequence “MKTIGLLGGMSWESTIPYYRLINEGIKQRLGGLHSAQMLLHSVDFHEIEECQRRGEWDKTGDILAEAALGLQRAGAEGIVLCTNTMHKVADAIESRCTLPFLHIADATGRAITGAGMTRVALLGTRYTMEQDFYRGRLTEQFSINCLIPEADERAKINQIIFEELCLGQFTEASRAYYAQVIARLAEQGAQGVIFGCTEIGLLVPEERSVLPVFDTAAIHAEDAVAFMLS”, the “soluble on expression in E. coli” value is “not soluble”.

“MTSRSNSGPGIQRRRGAIKHARVHEIRGHQFVATFFRQPHFCSLCSDFMWGLNKQGYQCQLCSAAVHKKCHEKVIMQCPGSAKNTKETMALKERFKVDIPHRFKTYNFKSPTFCDHCGSMLYGLFKQGLRCEVCNVACHHKCERLMSNLCGVNQKQLSEMYHEIKRGTHATASCPPNIANLHLNGETSKNNGSLPNKLKNLFKSHQYSVEEQKETDEYMDNIWGGGDGPVKKFALPHFNLLKVLGKGSFGKVMLVELKGKNEFYAMKCLKKDVILEDDDTECTYIERRVLILASQCPFLCQLFCSFQTNEYLFFVMEYLNGGDLMHHIQQIKKFDEARTRFYACEIVVALQFLHTNNIIYRDLKLDNVLLDCDGHIKLADFGMAKTEMNRENGMASTFCGTPDYISPEIIKGQLYNEAVDFWSFGVLMYEMLVGQSPFHGEGEDELFDSILNERPYFPKTISKEAAKCLSALFDRNPNTRLGMPECPDGPIRQHCFFRGVDWKRFENRQVPPPFKPNIKSNSDASNFDDDFTNEKAALTPVHDKNLLASIDPEAFLNFSYTNPHFSK”: the “soluble on expression in E. coli” value is listed as “not soluble”.

For the sequence “MAHHHHHHMFQNIQTIILDVNDGEMRAGYSGECSPRYNSNLILGLPVGHGATLKHTIFPLLPEIKRDNVELIYGMKYIYDDNNSSKYEINFDVMEKLLEDISGSKALDDNFQDHPILLTEPNKTDRKYREKFTEMMFETYNVYQLFLSRRSVLSCYGCARTSGLVLDVERNCTNLCGIQEGYIFQKHIEEVPIGGDLIDRIYLAYLENVKNIKIYPYFTIEKGQSAEKETDEIRILKCPLVTKPYYLWGSLHVASHLKENLGNECHPLGDKMKKNENKNESNTSYKLPDGSIIDQTTCESLKLIFPYIFFKKKYNQNSVTKLAGITTLQNMDFNSFYDSLKTLKLPVLYKHNYRINASSSVLERVPDNPADKNSNICNSDQIDTYFEIFDGLQDFIKKGILSFISANMTLDEVLNFLIVTGESTMFHNFIGILKSYLPFIDTIKEKSTQLIYSKGADRKCNCFIGASILSSLGTFPQFCMTKSEYEEYGVKNIVDKKCV”, the “soluble on expression in E. coli” value is given as “not soluble”.

For the sequence “MGSDKIHHHHHHALEENKEAKSLLEGIWLDDNTETALLRVKGDTLFYADAATAPVAFKIIGDSLITYGARTNGYKIEKQGEHIFWFHSAVGDVIRLHKSDTENDSLAFIHTREIPVYNEVIKKDSVVTYDNVRYRGYVYINPSKIKVMRPGVSEEGLGVDNVYYDNIIHICVYEGRKSLYAKDITKQMFKGVVPDDFLQWAILSDMDFMGVDSKGYHYQATVCIPDGASCYMVNITAGKDGGLAFELVR”, the “soluble on expression in E. coli” value was “not soluble”.

For the sequence “MADLSSRVNELHDLLNQYSYEYYVEDNPSVPDSEYDKLLHELIKIEEEHPEYKTVDSPTVRVGGEAQASFNKVNHDTPMLSLGNAFNEDDLRKFDQRIREQIGNVEYMCELKIDGLAVSLKYVDGYFVQGLTRGDGTTGEDITENLKTIHAIPLKMKEPLNVEVRGEAYMPRRSFLRLNEEKEKNDEQLFANPRNAAAGSLRQLDSKLTAKRKLSVFIYSVNDFTDFNARSQSEALDELDKLGFTTNKNRARVNNIDGVLEYIEKWTSQRESLPYDIDGIVIKVNDLDQQDEMGFTQKSPRWAIAYKFPAEEHHHHHH”, the “soluble on expression in E. coli” value was “soluble”.

As for “MGSDKIHHHHHHMAFVGFKKSGKTTTIEKVARVLKEKGYRVAIVKSMHSEFDRPGTDTWKFSRIADSVLVHAKDTDALLFKAKDINALFSMISSDVVLIEGFKSIKHVPKVICARSEDEVRELNDGLAIAVSGVIASQGVKEVDGLPVIDGTREPEKLAELVLKRGFMLPNIDCGLCGFNCEQMAKLIVKGEKSVNDCVVLSSRPKVIIKIDGQPLYLKDWVQELVEKTIKGMLSAMKGYREGKRIEIIING”, the “soluble on expression in E. coli” value is “not soluble”.

As to “MKIVIDLMGADHGVLPIIEGVSRALENKSFSVVLVGDKDKATPFISKELASKVEMIHTQDYIKMEEAATEAIKRKESSIYLGMDILKNGADALISAGHSGATMGLATLRLGRIKGVERPAICTLMPSVGKRPSVLLDAGANTDCKPEYLIDFALMGYEYAKSVLHYDSPKVGLLSNGEEDIKGNTLVKETHKMLKAYDFFYGNVEGSDIFKGVVDVVVCDGFMGNVVLKTTEGVASAIGSIFKDEIKSSFKSKMGALMLKNAFGILKQKTDYAEYGGAPLLGVNKSVIISHGKSNARAVECAIYQAISAVESQVCLRITQAFESLKSQSFESQSDQQDA”, the “soluble on expression in E. coli” value was “not soluble”.
